Earlier results, collected in paper PMC11932923.

Molecular target: IL-36R (Homo sapiens) (UniProt Q9HB29)
Test: Biacore SPR

UniProt Q9HB29, sequence (Q9HB29 20-575): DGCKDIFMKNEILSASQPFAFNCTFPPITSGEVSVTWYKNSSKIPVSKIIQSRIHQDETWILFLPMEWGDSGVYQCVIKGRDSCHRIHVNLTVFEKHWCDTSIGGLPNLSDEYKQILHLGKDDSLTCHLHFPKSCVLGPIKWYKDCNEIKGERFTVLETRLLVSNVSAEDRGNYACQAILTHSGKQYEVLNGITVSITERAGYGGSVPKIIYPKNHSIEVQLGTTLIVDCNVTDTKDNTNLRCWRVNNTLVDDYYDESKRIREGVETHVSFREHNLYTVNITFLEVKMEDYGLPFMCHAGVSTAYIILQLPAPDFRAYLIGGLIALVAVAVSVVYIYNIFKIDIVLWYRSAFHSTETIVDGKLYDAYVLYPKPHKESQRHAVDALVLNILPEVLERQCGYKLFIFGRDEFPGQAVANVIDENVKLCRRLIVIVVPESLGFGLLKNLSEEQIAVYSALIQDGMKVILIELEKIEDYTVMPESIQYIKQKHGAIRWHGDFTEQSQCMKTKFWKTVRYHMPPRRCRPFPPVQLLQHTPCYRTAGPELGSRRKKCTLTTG

Kd: 7 pM
Substance: IL-36β (N-terminally truncated) (from UniProt Q9NZH7)
